Measurements from publication PMC10230788.

Target: glucagon receptor (rat ventricular myocardium) (rat (endogenous in Sprague-Dawley rat right ventricle)) (UniProt P30082)
Chain of UniProt P30082 (P30082 27-485): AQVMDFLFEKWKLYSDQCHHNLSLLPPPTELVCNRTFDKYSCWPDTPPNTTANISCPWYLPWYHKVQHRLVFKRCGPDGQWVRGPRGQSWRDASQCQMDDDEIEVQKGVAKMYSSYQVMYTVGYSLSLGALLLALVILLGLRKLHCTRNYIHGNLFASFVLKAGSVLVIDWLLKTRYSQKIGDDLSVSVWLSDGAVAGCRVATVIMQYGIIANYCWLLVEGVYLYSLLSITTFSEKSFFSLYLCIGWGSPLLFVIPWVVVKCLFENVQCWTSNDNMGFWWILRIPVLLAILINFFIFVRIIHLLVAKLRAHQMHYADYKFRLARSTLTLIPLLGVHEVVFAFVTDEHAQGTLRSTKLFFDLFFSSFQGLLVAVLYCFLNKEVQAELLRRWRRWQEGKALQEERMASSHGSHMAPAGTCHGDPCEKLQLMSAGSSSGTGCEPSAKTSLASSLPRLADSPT

Chain of glucagon (P01275 53-81): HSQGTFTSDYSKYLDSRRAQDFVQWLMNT

For “glucagon (from UniProt P01275 53-81) (ligand)”, the Emax of the inotropic response (percent increase in contractility over baseline) of rat right ventricle strips to glucagon (1–1000 nM), in the absence of IBMX was 40%, the Emax of the inotropic response (percent increase in contractility over baseline) of rat right ventricle strips to glucagon (1–1000 nM), in the presence of 30 µM IBMX was 75% and the –log EC50 of the positive inotropic response (contractility) of electrically driven rat right ventricle strips to glucagon (1–1000 nM), glucagon alone was 7.1 –log EC50.
